logP and Km data for two molecules are collected here from ChEMBL document CHEMBL1154868 (J Nat Prod, 2010).

Data set [1] in a line: physchem. The settings on record: octanol/water.
Description: Lipophilicity, log P of the compound
Substrate in data set [2]: COCc1c(CO)cnc(C)c1O
To be noted: Homo sapiens.
Description: (§1) Activity at human PKH kinase expressed in Escherichia coli by affinity chromatography

Substrate in data set [3]: Cc1ncc(CO)c(CN)c1O
To be noted: Homo sapiens.
Description: as §1

Substrate in data set [4]: Cc1ncc(CO)c(C=O)c1O
The settings on record: Homo sapiens.
Description: as §1

Substrate in data set [5]: Cc1ncc(CO)c(CO)c1O
Description: as §1
The settings on record: Homo sapiens.

Take `Cc1ncc(CO)c(C=O)c1O` [PYRIDOXAL]: the logP in data set [1] was -1.18.

B1: Pyridoxal kinase (Homo sapiens), O00764 (protein)
chain: MEEECRVLSIQSHVIRGYVGNRAATFPLQVLGFEIDAVNSVQFSNHTGYAHWKGQVLNSDELQELYEGLRLNNMNKYDYVLTGYTRDKSFLAMVVDIVQELKQQNPRLVYVCDPVLGDKWDGEGSMYVPEDLLPVYKEKVVPLADIITPNQFEAELLSGRKIHSQEEALRVMDMLHSMGPDTVVITSSDLPSPQGSNYLIVLGSQRRRNPAGSVVMERIRMDIRKVDAVFVGTGDLFAAMLLAWTHKHPNNLKVACEKTVSTLHHVLQRTIQCAKAQAGEGVRPSPMQLELRMVQSKRDIEDPEIVVQATVL
Consider B1, for which the Km in data set [2] was determined as 5 µM; in data set [3] it was 130 µM; in data set [4] it was 59 µM; in data set [5], 9.9 µM.

Usually logP stands for a log measure of how a compound divides between an organic and an aqueous phase. A low value points to a more hydrophilic compound. In general, Km refers to the substrate concentration at which the rate is half of its maximum.
